Measured values as given in PMC11215065, “The HHV-6B U20 glycoprotein binds ULBP1, masking it from recognition by NKG2D and interfering with natural killer cell activation” (Frontiers in Immunology, 2024).

Molecular target: T1, Soluble U20 extracellular domain (sU20) of HHV-6B (HHV-6B, nine N-linked glycosylation sites with high mannose glycans; after EndoH a single GlcNAc at each site)
T1 construct: HHV-6B U20 glycoprotein, extracellular domain; Dimer in solution when alone (SEC-MALS, SEC-SAXS); Used glyco-intact or EndoH-treated, as told for each assay; also called soluble recombinant U20; source: stably transduced HEK293 GnTI cells, purified from supernatant (Nickel-NTA, cation exchange, SEC); in some cases treated with EndoH; not shown: 6xHIS, C-terminal, kept
Assay: SPR; Biacore 3000; biotinylated ULBP1-Fc (1000-2500 RU) on a Neutravidin coated CM5 chip; U20 injected at 0.125-32 μM; CD200 receptor Fc flow cell subtracted; equilibrium fit, one site specific binding, apparent; 20°C
Conditions: both partners purified

B1: ULBP1-Fc (Fc fusion)
chain: GWVDTHCLCYDFIITPKSRPEPQWCEVQGLVDERPFLHYDCVNHKAKAFASLGKKVNVTKTWEEQTETLRDVVDFLKGQLLDIQVENLIPIEPLTLQARMSCEHEAHGHGRGSWQFLFNGQKFLLFDSNNRKWTALHPGAKKMTEKWEKNRDVTMFFQKISLGDCKMWLEEFLMYWEQMLDPTKPPSLAPG
modifications: biotin on the BirA recognition sequence (for SPR)
- Kd: ~230 nM
